T1: Peptide_004 (human)
T1 peptide: GTYGLGDRKDQGGYT

T2: Peptide_054 (human)
T2 peptide: LKHQPGGGKVQIINK

T3: Peptide_007 (human)
T3 peptide: MHQDQEGDTDAGLKE

T4: Peptide_042 (human)
T4 peptide: PGSRSRTPSLPTPPT

T5: Peptide_060 (human)
T5 peptide: NIKHVPGGGSVQIVY

T6: Peptide_049 (human)
T6 peptide: SRLQTAPVPMPDLKN

T7: Peptide_056 (human)
T7 peptide: QIINKKLDLSNVQSK

T8: Peptide_048 (human)
T8 peptide: PSSAKSRLQTAPVPM

T9: Peptide_069 (human)
T9 peptide: SEKLDFKDRVQSKIG

T10: Peptide_012 (human)
T10 peptide: SEEPGSETSDAKSTP

T11: Peptide_031 (human)
T11 peptide: IATPRGAAPPGQKGQ

T12: Peptide_025 (human)
T12 peptide: HVTQARMVSKSKDGT

T13: Peptide_032 (human)
T13 peptide: GAAPPGQKGQANATR

T14: Peptide_011 (human)
T14 peptide: PTEDGSEEPGSETSD

T15: Peptide_047 (human)
T15 peptide: TPPKSPSSAKSRLQT

T16: Peptide_070 (human)
T16 peptide: FKDRVQSKIGSLDNI

T17: Peptide_030 (human)
T17 peptide: DGKTKIATPRGAAPP

T18: Peptide_020 (human)
T18 peptide: EIPEGTTAEEAGIGD

T19: Peptide_035 (human)
T19 peptide: IPAKTPPAPKTPPSS

T20: Peptide_057 (human)
T20 peptide: KLDLSNVQSKCGSKD

T21: Peptide_039 (human)
T21 peptide: SGDRSGYSSPGSPGT

T22: Peptide_085 (human)
T22 peptide: DSPQLATLADEVSAS

T23: Peptide_079 (human)
T23 peptide: EIVYKSPVVSGDTSP

T24: Peptide_084 (human)
T24 peptide: SIDMVDSPQLATLAD

T25: Peptide_082 (human)
T25 peptide: RHLSNVSSTGSIDMV

T26: Peptide_023 (human)
T26 peptide: TPSLEDEAAGHVTQA

T27: Peptide_033 (human)
T27 peptide: GQKGQANATRIPAKT

T28: Peptide_064 (human)
T28 peptide: SKVTSKCGSLGNIHH

T29: Peptide_073 (human)
T29 peptide: THVPGGGNKKIETHK

T30: Peptide_051 (human)
T30 peptide: PDLKNVKSKIGSTEN

T31: Peptide_086 (human)
T31 peptide: ATLADEVSASLAKQG

T32: Peptide_066 (human)
T32 peptide: GNIHHKPGGGQVEVK

T33: Peptide_037 (human)
T33 peptide: TPPSSGEPPKSGDRS

T34: Peptide_068 (human)
T34 peptide: QVEVKSEKLDFKDRV

T35: Peptide_019 (human)
T35 peptide: AQPHTEIPEGTTAEE


What was measured:
Test in all cases: peptide array
Peptide_004 = target: T1, Peptide_004
How it was run: (§1)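 Overlapping 15-mer peptides (5-aa offset) spanning human 2N4R Tau spotted in triplicate on slides; antibodies bound 2 h at room temperature in 3% BSA-TBST (chimeric IgG 5 μg/mL; mouse IgG 30 μg/mL). Detection 1 h with fluorescent anti-human (568 nm) or anti-mouse (647 nm) secondary; fluorescence imaging aligned to array map.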

Peptide_054 = target: T2, Peptide_054
How it was run: as §1

Peptide_007 = target: T3, Peptide_007
How it was run: as §1

Peptide_042 = target: T4, Peptide_042
How it was run: as §1

Peptide_060 = target: T5, Peptide_060
How it was run: as §1

Peptide_049 = target: T6, Peptide_049
How it was run: as §1

Peptide_056 = target: T7, Peptide_056
How it was run: as §1

Peptide_048 = target: T8, Peptide_048
How it was run: as §1

Peptide_069 = target: T9, Peptide_069
How it was run: as §1

Peptide_012 = target: T10, Peptide_012
How it was run: as §1

Peptide_031 = target: T11, Peptide_031
How it was run: as §1

Peptide_025 = target: T12, Peptide_025
How it was run: as §1

Peptide_032 = target: T13, Peptide_032
How it was run: as §1

Peptide_011 = target: T14, Peptide_011
How it was run: as §1

Peptide_047 = target: T15, Peptide_047
How it was run: as §1

Peptide_070 = target: T16, Peptide_070
How it was run: as §1

Peptide_030 = target: T17, Peptide_030
How it was run: as §1

Peptide_020 = target: T18, Peptide_020
How it was run: as §1

Peptide_035 = target: T19, Peptide_035
How it was run: as §1

Peptide_057 = target: T20, Peptide_057
How it was run: as §1

Peptide_039 = target: T21, Peptide_039
How it was run: as §1

Peptide_085 = target: T22, Peptide_085
How it was run: as §1

Peptide_079 = target: T23, Peptide_079
How it was run: as §1

Peptide_084 = target: T24, Peptide_084
How it was run: as §1

Peptide_082 = target: T25, Peptide_082
How it was run: as §1

Peptide_023 = target: T26, Peptide_023
How it was run: as §1

Peptide_033 = target: T27, Peptide_033
How it was run: as §1

Peptide_064 = target: T28, Peptide_064
How it was run: as §1

Peptide_073 = target: T29, Peptide_073
How it was run: as §1

Peptide_051 = target: T30, Peptide_051
How it was run: as §1

Peptide_086 = target: T31, Peptide_086
How it was run: as §1

Peptide_066 = target: T32, Peptide_066
How it was run: as §1

Peptide_037 = target: T33, Peptide_037
How it was run: as §1

Peptide_068 = target: T34, Peptide_068
How it was run: as §1

Peptide_019 = target: T35, Peptide_019
How it was run: as §1

Binder	binding result (Peptide_004)	binding result (Peptide_054)	binding result (Peptide_007)	binding result (Peptide_042)	binding result (Peptide_060)	binding result (Peptide_049)	binding result (Peptide_056)	binding result (Peptide_048)	binding result (Peptide_069)	binding result (Peptide_012)	binding result (Peptide_031)	binding result (Peptide_025)	binding result (Peptide_032)	binding result (Peptide_011)	binding result (Peptide_047)	binding result (Peptide_070)	binding result (Peptide_030)	binding result (Peptide_020)	binding result (Peptide_035)	binding result (Peptide_057)	also measured
chimeric IgG clone 1A5 (antibody, V domains shown, mouse-human chimeric IgG from HEK293) VH: EVQLQQSGAELVRPGASVKLSCTASGFNIKDSLIHWVKQRPEQGLEWIGWIDPEDGETKYAPKFQDKATKTADTSSNTAYLQLSSLTSEDTAIYYCASGEWDYWGQGTSVTVSS VL: not shown	no binding (tested: 5 ug/mL)	no binding (tested: 5 ug/mL)	no binding (tested: 5 ug/mL)	no binding (tested: 5 ug/mL)	no binding (tested: 5 ug/mL)	no binding (tested: 5 ug/mL)	no binding (tested: 5 ug/mL)	no binding (tested: 5 ug/mL)	no binding (tested: 5 ug/mL)	no binding (tested: 5 ug/mL)	no binding (tested: 5 ug/mL)	no binding (tested: 5 ug/mL)	no binding (tested: 5 ug/mL)	no binding (tested: 5 ug/mL)	no binding (tested: 5 ug/mL)	binds	no binding (tested: 5 ug/mL)	no binding (tested: 5 ug/mL)	no binding (tested: 5 ug/mL)	no binding (tested: 5 ug/mL)	binding result (Peptide_039): no binding (tested: 5 ug/mL); binding result (Peptide_085): no binding (tested: 5 ug/mL); binding result (Peptide_079): no binding (tested: 5 ug/mL); binding result (Peptide_084): no binding (tested: 5 ug/mL); binding result (Peptide_082): no binding (tested: 5 ug/mL); binding result (Peptide_023): no binding (tested: 5 ug/mL); binding result (Peptide_033): no binding (tested: 5 ug/mL); binding result (Peptide_064): no binding (tested: 5 ug/mL); binding result (Peptide_073): no binding (tested: 5 ug/mL); binding result (Peptide_051): binds; binding result (Peptide_086): no binding (tested: 5 ug/mL); binding result (Peptide_066): no binding (tested: 5 ug/mL); binding result (Peptide_037): no binding (tested: 5 ug/mL); binding result (Peptide_068): no binding (tested: 5 ug/mL); binding result (Peptide_019): no binding (tested: 5 ug/mL)
chimeric IgG clone 1A1 (antibody, V domains shown, mouse-human chimeric IgG from HEK293; also called anti-Tau 1A1; anti-Tau^1A1) VH: EVQLQQSGAELVRPGASVRLSCTASGFNIKDSLMHWLKQRPEQGLEWIGWIDPEDGETKYAPKFQDKATITADTSSNTAYLQLSSLTSEDTAIYYCTRRDWEGPWGQGTLVTVSA VL: not shown	no binding (tested: 5 ug/mL)	no binding (tested: 5 ug/mL)	no binding (tested: 5 ug/mL)	no binding (tested: 5 ug/mL)	no binding (tested: 5 ug/mL)	no binding (tested: 5 ug/mL)	no binding (tested: 5 ug/mL)	no binding (tested: 5 ug/mL)	no binding (tested: 5 ug/mL)	no binding (tested: 5 ug/mL)	no binding (tested: 5 ug/mL)	no binding (tested: 5 ug/mL)	no binding (tested: 5 ug/mL)	no binding (tested: 5 ug/mL)	no binding (tested: 5 ug/mL)	binds	no binding (tested: 5 ug/mL)	no binding (tested: 5 ug/mL)	no binding (tested: 5 ug/mL)	no binding (tested: 5 ug/mL)	binding result (Peptide_039): no binding (tested: 5 ug/mL); binding result (Peptide_085): no binding (tested: 5 ug/mL); binding result (Peptide_079): no binding (tested: 5 ug/mL); binding result (Peptide_084): no binding (tested: 5 ug/mL); binding result (Peptide_082): no binding (tested: 5 ug/mL); binding result (Peptide_023): no binding (tested: 5 ug/mL); binding result (Peptide_033): no binding (tested: 5 ug/mL); binding result (Peptide_064): no binding (tested: 5 ug/mL); binding result (Peptide_073): no binding (tested: 5 ug/mL); binding result (Peptide_051): binds; binding result (Peptide_086): no binding (tested: 5 ug/mL); binding result (Peptide_066): no binding (tested: 5 ug/mL); binding result (Peptide_037): no binding (tested: 5 ug/mL); binding result (Peptide_068): no binding (tested: 5 ug/mL); binding result (Peptide_019): no binding (tested: 5 ug/mL)
chimeric IgG clone 1G7 (antibody, V domains shown, mouse-human chimeric IgG from HEK293) VH: EVQLQQSGAEVVRPGASVKLSCTTSGFNIKDSLMHWLKQRPEQGLEWIGWIDPEDGETKYAPKFQDKATITADTSSNTAYLQLSSLTSGDTAIYYCARRDWEGPWGQGTLVTVSA VL: not shown	no binding (tested: 5 ug/mL)	no binding (tested: 5 ug/mL)	no binding (tested: 5 ug/mL)	no binding (tested: 5 ug/mL)	no binding (tested: 5 ug/mL)	no binding (tested: 5 ug/mL)	no binding (tested: 5 ug/mL)	no binding (tested: 5 ug/mL)	no binding (tested: 5 ug/mL)	no binding (tested: 5 ug/mL)	no binding (tested: 5 ug/mL)	no binding (tested: 5 ug/mL)	no binding (tested: 5 ug/mL)	no binding (tested: 5 ug/mL)	no binding (tested: 5 ug/mL)	binds	no binding (tested: 5 ug/mL)	no binding (tested: 5 ug/mL)	no binding (tested: 5 ug/mL)	no binding (tested: 5 ug/mL)	binding result (Peptide_039): no binding (tested: 5 ug/mL); binding result (Peptide_085): no binding (tested: 5 ug/mL); binding result (Peptide_079): no binding (tested: 5 ug/mL); binding result (Peptide_084): no binding (tested: 5 ug/mL); binding result (Peptide_082): no binding (tested: 5 ug/mL); binding result (Peptide_023): no binding (tested: 5 ug/mL); binding result (Peptide_033): no binding (tested: 5 ug/mL); binding result (Peptide_064): no binding (tested: 5 ug/mL); binding result (Peptide_073): no binding (tested: 5 ug/mL); binding result (Peptide_051): binds; binding result (Peptide_086): no binding (tested: 5 ug/mL); binding result (Peptide_066): no binding (tested: 5 ug/mL); binding result (Peptide_037): no binding (tested: 5 ug/mL); binding result (Peptide_068): no binding (tested: 5 ug/mL); binding result (Peptide_019): no binding (tested: 5 ug/mL)
